Results on three proteins are retold here after paper PMC8213154, “Replacement of Arg in the conserved N-terminal RLFDQxFG motif affects physico-chemical properties and chaperone-like activity of human small heat shock protein HspB8 (Hsp22)” (PLoS ONE, 2021).

Series [1] deals with the molecule itself. In words: SEC-MALS; Superdex 200 Increase 10/30; 20 mM Tris/acetate pH 7.6, 150 mM NaCl, 0.1 mM EDTA, 0.1 mM PMSF, 2 mM DTT; 200–250 μg of HspB8 WT or R29A, or 400 μg of Δ28–32 loaded. A general note: In gel filtration, larger molecules generally elute earlier.
Series [2] concerns the molecule itself. In words: SEC-MALS; Superdex 200 Increase 10/30; buffer D (20 mM Tris/acetate pH 7.6, 150 mM NaCl, 0.1 mM EDTA, 0.1 mM PMSF) without any reducing agents; 200–250 μg of oxidized HspB8Cys loaded.

B1: HspB8 R29A mutant (natural protein, human, UniProt Q9UJY1 1-196, looked up)
chain: MADGQMPFSCHYPSRLRRDPFRDSPLSSALLDDGFGMDPFPDDLTASWPDWALPRLSSAWPGTLRSGMVPRGPTATARFGVPAEGRTPPPFPGEPWKVCVNVHSFKPEELMVKTKDGYVEVSGKHEEKQQEGGIVSKNFTKKIQLPAEVDPVTVFASLSPEGLLIIEAPQVPPYSTFGESSFNNELPQDSQEVTCT
notes: human HspB8 (Hsp22), Uniprot Q9UJY1, carrying the R29A mutation; calculated Mw of monomer 21.5 kDa; No tag is named
As to B1, the binding result in series [1] is recorded as “binds”.

B2: oxidized Cys mutant of HspB8 (C10S/C99S/C195S/N138C) (natural protein, human, UniProt Q9UJY1 1-196, looked up)
chain: MADGQMPFSSHYPSRLRRDPFRDSPLSSRLLDDGFGMDPFPDDLTASWPDWALPRLSSAWPGTLRSGMVPRGPTATARFGVPAEGRTPPPFPGEPWKVSVNVHSFKPEELMVKTKDGYVEVSGKHEEKQQEGGIVSKCFTKKIQLPAEVDPVTVFASLSPEGLLIIEAPQVPPYSTFGESSFNNELPQDSQEVTST
modifications: engineered disulfide bridge between the Cys138 residues of two chains (oxidized form)
notes: human HspB8 (Hsp22), Uniprot Q9UJY1, with the C10S/C99S/C195S/N138C amino acid substitutions; calculated Mw of monomer 21.5 kDa; The dimer is covalent (S-S crosslinked) after oxidation; No tag is named; also called HspB8Cys; oxidized HspB8Cys; source: oxidized by overnight dialysis
With B2, in series [2], the “stoichiometry N” value turned out to be 2.

B3: HspB8 Δ28–32 mutant (natural protein, human, UniProt Q9UJY1 1-196, looked up)
chain: MADGQMPFSCHYPSRLRRDPFRDSPLSDGFGMDPFPDDLTASWPDWALPRLSSAWPGTLRSGMVPRGPTATARFGVPAEGRTPPPFPGEPWKVCVNVHSFKPEELMVKTKDGYVEVSGKHEEKQQEGGIVSKNFTKKIQLPAEVDPVTVFASLSPEGLLIIEAPQVPPYSTFGESSFNNELPQDSQEVTCT
notes: human HspB8 (Hsp22), Uniprot Q9UJY1, with the pentapeptide 28SRLLD32 deleted; calculated Mw of monomer 21.0 kDa; Made by PCR from the HspB8 WT cDNA and ligated into pET23 via NdeI and XhoI; No tag is named; also called Δ mutant; deletion mutant of HspB8
B3: in series [1], the “stoichiometry N” value was determined as 2.

A word on the stoichiometry N: it is a count of units in the complex or per binding partner.
